Test results as given in the Human Domainome abundance scans (Beltran et al. 2025).
± gives the uncertainty stated by the source.

B1: Formin-binding protein 4, residues 200 to 261; numbered along this chain, Q8N3X1 (parent)
chain: SGWQYDTQCSLAGVGIEMGDWQEVWDENTGCYYYWNTQTNEVTWELPQYLATQVQGLQHYQP

Variants of: B1
Test: abundance fitness (aPCA) (normalised: wild type 0, dead -1); higher = more abundant; growth selection in yeast, the domain comes from the species named
Conditions: Homo sapiens

Variant | abundance fitness
SGWQYDTQCSLAGVGIEMGDWQEVWDENTGCYYYWNTQTNEVTAELPQYLATQVQGLQHYQP | -0.221 ± 0.083
SGWQYDTQCSLAGVGIEMGDWQEVWDENTGCYYYWNTQTNEVTLELPQYLATQVQGLQHYQP | -0.226 ± 0.062
SGWQYDTQCSLAGVGIEMGDWQEVWDENTGCYYYWNTQTNEVTTELPQYLATQVQGLQHYQP | -0.077 ± 0.079
SGWQYDTQCSLAGVGIEMGDWQEVWDENTGCYYYWNTQTNEVTNELPQYLATQVQGLQHYQP | 0.068 ± 0.12
SGWQYDTQCSLAGVGIEMGDWQEVWDENTGCYYYWNTQTNEVTFELPQYLATQVQGLQHYQP | -0.121 ± 0.087
SGWQYDTQCSLAGVGIEMGDWQEVWDENTGCYYYWNTQTNEVTPELPQYLATQVQGLQHYQP | -0.218 ± 0.084
SGWQYDTQCSLAGVGIEMGDWQEVWDENTGCYYYWNTQTNEVTDELPQYLATQVQGLQHYQP | -0.429 ± 0.15
SGWQYDTQCSLAGVGIEMGDWQEVWDENTGCYYYWNTQTNEVTGELPQYLATQVQGLQHYQP | -0.135 ± 0.065
SGWQYDTQCSLAGVGIEMGDWQEVWDENTGCYYYWNTQTNEVTEELPQYLATQVQGLQHYQP | 0.078 ± 0.086
SGWQYDTQCSLAGVGIEMGDWQEVWDENTGCYYYWNTQTNEVTIELPQYLATQVQGLQHYQP | -0.503 ± 0.17
SGWQYDTQCSLAGVGIEMGDWQEVWDENTGCYYYWNTQTNEVTRELPQYLATQVQGLQHYQP | 0.03 ± 0.054
SGWQYDTQCSLAGVGIEMGDWQEVWDENTGCYYYWNTQTNEVTCELPQYLATQVQGLQHYQP | -0.078 ± 0.096
SGWQYDTQCSLAGVGIEMGDWQEVWDENTGCYYYWNTQTNEVTSELPQYLATQVQGLQHYQP | -0.037 ± 0.064
SGWQYDTQCSLAGVGIEMGDWQEVWDENTGCYYYWNTQTNEVTYELPQYLATQVQGLQHYQP | 0.089 ± 0.14
SGWQYDTQCSLAGVGIEMGDWQEVWDENTGCYYYWNTQTNEVTKELPQYLATQVQGLQHYQP | 0.043 ± 0.088
SGWQYDTQCSLAGVGIEMGDWQEVWDENTGCYYYWNTQTNEVTQELPQYLATQVQGLQHYQP | -0.061 ± 0.076
SGWQYDTQCSLAGVGIEMGDWQEVWDENTGCYYYWNTQTNEVTVELPQYLATQVQGLQHYQP | -0.127 ± 0.069
SGWQYDTQCSLAGVGIEMGDWQEVWDENTGCYYYWNTQTNEVTHELPQYLATQVQGLQHYQP | -0.236 ± 0.14
SGWQYDTQCSLAGVGIEMGDWQEVWDENTGCYYYWNTQTNLVTWELPQYLATQVQGLQHYQP | -0.111 ± 0.059
SGWQYDTQCSLAGVGIEMGDWQEVWDENTGCYYYWNTQTNHVTWELPQYLATQVQGLQHYQP | -0.472 ± 0.2
SGWQYDTQCSLAGVGIEMGDWQEVWDENTGCYYYWNTQTNGVTWELPQYLATQVQGLQHYQP | -0.471 ± 0.1
SGWQYDTQCSLAGVGIEMGDWQEVWDENTGCYYYWNTQTNRVTWELPQYLATQVQGLQHYQP | -0.158 ± 0.078

Variant | abundance fitness
SGWQYDTQCSLAGVGIEMGDWQEVWDENTGCYYYWNTQTNIVTWELPQYLATQVQGLQHYQP | -0.324 ± 0.17
SGWQYDTQCSLAGVGIEMGDWQEVWDENTGCYYYWNTQTNFVTWELPQYLATQVQGLQHYQP | -0.556 ± 0.14
SGWQYDTQCSLAGVGIEMGDWQEVWDENTGCYYYWNTQTNDVTWELPQYLATQVQGLQHYQP | -0.268 ± 0.19
SGWQYDTQCSLAGVGIEMGDWQEVWDENTGCYYYWNTQTNKVTWELPQYLATQVQGLQHYQP | -0.081 ± 0.092
SGWQYDTQCSLAGVGIEMGDWQEVWDENTGCYYYWNTQTNPVTWELPQYLATQVQGLQHYQP | -0.776 ± 0.12
SGWQYDTQCSLAGVGIEMGDWQEVWDENTGCYYYWNTQTNSVTWELPQYLATQVQGLQHYQP | -0.349 ± 0.082
SGWQYDTQCSLAGVGIEMGDWQEVWDENTGCYYYWNTQTNNVTWELPQYLATQVQGLQHYQP | -0.364 ± 0.18
SGWQYDTQCSLAGVGIEMGDWQEVWDENTGCYYYWNTQTNTVTWELPQYLATQVQGLQHYQP | -0.283 ± 0.084
SGWQYDTQCSLAGVGIEMGDWQEVWDENTGCYYYWNTQTNAVTWELPQYLATQVQGLQHYQP | -0.109 ± 0.086
SGWQYDTQCSLAGVGIEMGDWQEVWDENTGCYYYWNTQTNVVTWELPQYLATQVQGLQHYQP | -0.323 ± 0.09
SGWQYDTQCSLAGVGIEMGDWQEVWDENTGCYYYWNTQTNYVTWELPQYLATQVQGLQHYQP | -0.231 ± 0.13
SGWQYDTQCSLAGVGIEMGDWQEVWDENTGCYYYWNTQTNWVTWELPQYLATQVQGLQHYQP | -0.378 ± 0.11
SGWQYDTQCSLAGVGIEMGDWQEVWDENTGCYYYWNTQTNMVTWELPQYLATQVQGLQHYQP | -0.34 ± 0.098
SGWQYDTQCSLAGVGIEMGDWQEVWDENTGCYYYWNTQTNCVTWELPQYLATQVQGLQHYQP | -0.409 ± 0.15
SGWQYDTQCSLAGVGIEMGDWQEVWDENTGCYYYWNTQTNQVTWELPQYLATQVQGLQHYQP | 0.014 ± 0.076
SGWQYDTQCSLAGVGIEMGDWQEVWDENTGCYYYWNTQTREVTWELPQYLATQVQGLQHYQP | -0.157 ± 0.06
SGWQYDTQCSLAGVGIEMGDWQEVWDENTGCYYYWNTQTMEVTWELPQYLATQVQGLQHYQP | -0.298 ± 0.091
SGWQYDTQCSLAGVGIEMGDWQEVWDENTGCYYYWNTQTFEVTWELPQYLATQVQGLQHYQP | -0.37 ± 0.12
SGWQYDTQCSLAGVGIEMGDWQEVWDENTGCYYYWNTQTEEVTWELPQYLATQVQGLQHYQP | -0.04 ± 0.075
SGWQYDTQCSLAGVGIEMGDWQEVWDENTGCYYYWNTQTCEVTWELPQYLATQVQGLQHYQP | -0.505 ± 0.13
SGWQYDTQCSLAGVGIEMGDWQEVWDENTGCYYYWNTQTVEVTWELPQYLATQVQGLQHYQP | -0.556 ± 0.081
SGWQYDTQCSLAGVGIEMGDWQEVWDENTGCYYYWNTQTQEVTWELPQYLATQVQGLQHYQP | -0.056 ± 0.082

Variant | abundance fitness
SGWQYDTQCSLAGVGIEMGDWQEVWDENTGCYYYWNTQTSEVTWELPQYLATQVQGLQHYQP | -0.057 ± 0.063
SGWQYDTQCSLAGVGIEMGDWQEVWDENTGCYYYWNTQTWEVTWELPQYLATQVQGLQHYQP | -0.34 ± 0.082
SGWQYDTQCSLAGVGIEMGDWQEVWDENTGCYYYWNTQTYEVTWELPQYLATQVQGLQHYQP | -0.564 ± 0.17
SGWQYDTQCSLAGVGIEMGDWQEVWDENTGCYYYWNTQTTEVTWELPQYLATQVQGLQHYQP | -0.096 ± 0.097
SGWQYDTQCSLAGVGIEMGDWQEVWDENTGCYYYWNTQTPEVTWELPQYLATQVQGLQHYQP | -0.931 ± 0.15
SGWQYDTQCSLAGVGIEMGDWQEVWDENTGCYYYWNTQTGEVTWELPQYLATQVQGLQHYQP | -0.037 ± 0.062
SGWQYDTQCSLAGVGIEMGDWQEVWDENTGCYYYWNTQTHEVTWELPQYLATQVQGLQHYQP | -0.032 ± 0.11
SGWQYDTQCSLAGVGIEMGDWQEVWDENTGCYYYWNTQTIEVTWELPQYLATQVQGLQHYQP | -0.607 ± 0.19
SGWQYDTQCSLAGVGIEMGDWQEVWDENTGCYYYWNTQTNEVWWELPQYLATQVQGLQHYQP | -0.584 ± 0.11
SGWQYDTQCSLAGVGIEMGDWQEVWDENTGCYYYWNTQTNEVGWELPQYLATQVQGLQHYQP | -0.401 ± 0.072
SGWQYDTQCSLAGVGIEMGDWQEVWDENTGCYYYWNTQTNEVRWELPQYLATQVQGLQHYQP | -0.262 ± 0.068
SGWQYDTQCSLAGVGIEMGDWQEVWDENTGCYYYWNTQTNEVNWELPQYLATQVQGLQHYQP | -0.263 ± 0.17
SGWQYDTQCSLAGVGIEMGDWQEVWDENTGCYYYWNTQTNEVLWELPQYLATQVQGLQHYQP | -0.092 ± 0.061
SGWQYDTQCSLAGVGIEMGDWQEVWDENTGCYYYWNTQTNEVEWELPQYLATQVQGLQHYQP | -0.053 ± 0.076
SGWQYDTQCSLAGVGIEMGDWQEVWDENTGCYYYWNTQTNEVCWELPQYLATQVQGLQHYQP | -0.02 ± 0.096
SGWQYDTQCSLAGVGIEMGDWQEVWDENTGCYYYWNTQTNEVSWELPQYLATQVQGLQHYQP | -0.021 ± 0.063
SGWQYDTQCSLAGVGIEMGDWQEVWDENTGCYYYWNTQTNEVKWELPQYLATQVQGLQHYQP | -0.172 ± 0.092
SGWQYDTQCSLAGVGIEMGDWQEVWDENTGCYYYWNTQTNEVYWELPQYLATQVQGLQHYQP | -0.332 ± 0.14
SGWQYDTQCSLAGVGIEMGDWQEVWDENTGCYYYWNTQTNEVMWELPQYLATQVQGLQHYQP | -0.317 ± 0.088
SGWQYDTQCSLAGVGIEMGDWQEVWDENTGCYYYWNTQTNEVQWELPQYLATQVQGLQHYQP | -0.018 ± 0.1
SGWQYDTQCSLAGVGIEMGDWQEVWDENTGCYYYWNTQTNEVAWELPQYLATQVQGLQHYQP | -0.1 ± 0.076
SGWQYDTQCSLAGVGIEMGDWQEVWDENTGCYYYWNTQTNEVFWELPQYLATQVQGLQHYQP | -0.34 ± 0.12

Variant | abundance fitness
SGWQYDTQCSLAGVGIEMGDWQEVWDENTGCYYYWNTQTNEVTWHLPQYLATQVQGLQHYQP | -0.338 ± 0.16
SGWQYDTQCSLAGVGIEMGDWQEVWDENTGCYYYWNTQTNEVTWDLPQYLATQVQGLQHYQP | -0.149 ± 0.12
SGWQYDTQCSLAGVGIEMGDWQEVWDENTGCYYYWNTQTNEVTWGLPQYLATQVQGLQHYQP | -0.321 ± 0.082
SGWQYDTQCSLAGVGIEMGDWQEVWDENTGCYYYWNTQTNEVTWFLPQYLATQVQGLQHYQP | -0.398 ± 0.14
SGWQYDTQCSLAGVGIEMGDWQEVWDENTGCYYYWNTQTNEVTWILPQYLATQVQGLQHYQP | -0.089 ± 0.13
SGWQYDTQCSLAGVGIEMGDWQEVWDENTGCYYYWNTQTNEVTWALPQYLATQVQGLQHYQP | -0.213 ± 0.095
SGWQYDTQCSLAGVGIEMGDWQEVWDENTGCYYYWNTQTNEMTWELPQYLATQVQGLQHYQP | 0.12 ± 0.07
SGWQYDTQCSLAGVGIEMGDWQEVWDENTGCYYYWNTQTNEYTWELPQYLATQVQGLQHYQP | -0.453 ± 0.14
SGWQYDTQCSLAGVGIEMGDWQEVWDENTGCYYYWNTQTNEFTWELPQYLATQVQGLQHYQP | -0.148 ± 0.096
SGWQYDTQCSLAGVGIEMGDWQEVWDENTGCYYYWNTQTNEKTWELPQYLATQVQGLQHYQP | 0.084 ± 0.11
SGWQYDTQCSLAGVGIEMGDWQEVWDENTGCYYYWNTQTNEITWELPQYLATQVQGLQHYQP | -0.188 ± 0.11
SGWQYDTQCSLAGVGIEMGDWQEVWDENTGCYYYWNTQTNECTWELPQYLATQVQGLQHYQP | -0.242 ± 0.13
SGWQYDTQCSLAGVGIEMGDWQEVWDENTGCYYYWNTQTNEQTWELPQYLATQVQGLQHYQP | 0.308 ± 0.094
SGWQYDTQCSLAGVGIEMGDWQEVWDENTGCYYYWNTQTNELTWELPQYLATQVQGLQHYQP | -0.202 ± 0.055
SGWQYDTQCSLAGVGIEMGDWQEVWDENTGCYYYWNTQTNEPTWELPQYLATQVQGLQHYQP | -0.415 ± 0.11
SGWQYDTQCSLAGVGIEMGDWQEVWDENTGCYYYWNTQTNEWTWELPQYLATQVQGLQHYQP | -0.457 ± 0.14
SGWQYDTQCSLAGVGIEMGDWQEVWDENTGCYYYWNTQTNEETWELPQYLATQVQGLQHYQP | 0.063 ± 0.081
SGWQYDTQCSLAGVGIEMGDWQEVWDENTGCYYYWNTQTNENTWELPQYLATQVQGLQHYQP | -0.203 ± 0.16
SGWQYDTQCSLAGVGIEMGDWQEVWDENTGCYYYWNTQTNERTWELPQYLATQVQGLQHYQP | 0.095 ± 0.067
SGWQYDTQCSLAGVGIEMGDWQEVWDENTGCYYYWNTQTNESTWELPQYLATQVQGLQHYQP | 0.02 ± 0.065
